Experimental data taken from patent US20200306373A1 (Hoffmann-La Roche, published 2020).

T1: murine ICOS (murine, UniProt Q9WVS0 21-200)
T1 sequence: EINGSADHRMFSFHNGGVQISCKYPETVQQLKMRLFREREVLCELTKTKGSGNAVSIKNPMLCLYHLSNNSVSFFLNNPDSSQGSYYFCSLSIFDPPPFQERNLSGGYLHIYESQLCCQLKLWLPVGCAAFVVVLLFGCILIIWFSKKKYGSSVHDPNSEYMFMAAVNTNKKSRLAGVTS

B1: ICOS(16E09)-FAP(28H1) 2+1, FAP-targeted anti-murine ICOS_2+1, mIgG1 DAPG, bivalent murine ICOS (16E09), monovalent FAP (28H1) (bispecific antibody)
heavy 1: EVQLVQSGAEVKKPGESLKISCKGSGYSFTSYWIGWVRQMPGKGLEWMGIIYPGDSDTRYSPSFQGQVTISADKSISTAYLQWSSLKASDTAMYYCARSSGPYGLYLDYWGQGTLVTVSSAKTTPPSVYPLAPGSAAQTNSMVTLGCLVKGYFPEPVTVTWNSGSLSSGVHTFPAVLQSDLYTLSSSVTVPSSTWPSQTVTCNVAHPASSTKVDKKIVPRDCGCKPCICTVPEVSSVFIFPPKPKDVLTITLTPKVTCVVVAISKDDPEVQFSWFVDDVEVHTAQTKPREEQINSTFRSVSELPIMHQDWLNGKEFKCRVNSAAFGAPIEKTISKTKGRPKAPQVYTIPPPKEQMAKDKVSLTCMITNFFPEDITVEWQWNGQPAENYDNTQPIMDTDGSYFVYSDLNVQKSNWEAGNTFTCSVLHEGLHNHHTEKSLSHSPGGGGGSGGGGSGGGGSGGGGSEIVLTQSPGTLSLSPGERATLSCRASQSVSRSYLAWYQQKPGQAPRLLIIGASTRATGIPDRFSGSGSGTDFTLTISRLEPEDFAVYYCQQGQVIPPTFGQGTKVEIK
heavy 2: EVQLVQSGAEVKKPGESLKISCKGSGYSFTSYWIGWVRQMPGKGLEWMGIIYPGDSDTRYSPSFQGQVTISADKSISTAYLQWSSLKASDTAMYYCARSSGPYGLYLDYWGQGTLVTVSSAKTTPPSVYPLAPGSAAQTNSMVTLGCLVKGYFPEPVTVTWNSGSLSSGVHTFPAVLQSDLYTLSSSVTVPSSTWPSQTVTCNVAHPASSTKVDKKIVPRDCGCKPCICTVPEVSSVFIFPPKPKDVLTITLTPKVTCVVVAISKDDPEVQFSWFVDDVEVHTAQTKPREEQINSTFRSVSELPIMHQDWLNGKEFKCRVNSAAFGAPIEKTISKTKGRPKAPQVYTIPPPKKQMAKDKVSLTCMITNFFPEDITVEWQWNGQPAENYKNTQPIMKTDGSYFVYSKLNVQKSNWEAGNTFTCSVLHEGLHNHHTEKSLSHSPGGGGGSGGGGSGGGGSGGGGSEVQLLESGGGLVQPGGSLRLSCAASGFTFSSHAMSWVRQAPGKGLEWVSAIWASGEQYYADSVKGRFTISRDNSKNTLYLQMNSLRAEDTAVYYCAKGWLGNFDYWGQGTLVTVSS
light: not shown
notes: Murine IgG1 DAPG DDKK; also called ICOS(16E09)-FAP(28H1) 2 + 1 muIgG1 DAPG
B2: ICOS(16E09)-FAP(28H1) 1+1, FAP-targeted anti-murine ICOS_1+1, mIgG1 DAPG, monovalent murine ICOS (16E09), monovalent FAP (28H1) (bispecific antibody)
heavy 1: EVQLVQSGAEVKKPGESLKISCKGSGYSFTSYWIGWVRQMPGKGLEWMGIIYPGDSDTRYSPSFQGQVTISADKSISTAYLQWSSLKASDTAMYYCARSSGPYGLYLDYWGQGTLVTVSSAKTTPPSVYPLAPGSAAQTNSMVTLGCLVEGYFPEPVTVTWNSGSLSSGVHTFPAVLQSDLYTLSSSVTVPSSTWPSQTVTCNVAHPASSTKVDEKIVPRDCGCKPCICTVPEVSSVFIFPPKPKDVLTITLTPKVTCVVVAISKDDPEVQFSWFVDDVEVHTAQTKPREEQINSTFRSVSELPIMHQDWLNGKEFKCRVNSAAFGAPIEKTISKTKGRPKAPQVYTIPPPKEQMAKDKVSLTCMITNFFPEDITVEWQWNGQPAENYDNTQPIMDTDGSYFVYSDLNVQKSNWEAGNTFTCSVLHEGLHNHHTEKSLSHSP
heavy 2: EIVLTQSPGTLSLSPGERATLSCRASQSVSRSYLAWYQQKPGQAPRLLIIGASTRATGIPDRFSGSGSGTDFTLTISRLEPEDFAVYYCQQGQVIPPTFGQGTKVEIKSSAKTTPPSVYPLAPGSAAQTNSMVTLGCLVKGYFPEPVTVTWNSGSLSSGVHTFPAVLQSDLYTLSSSVTVPSSTWPSQTVTCNVAHPASSTKVDKKIVPRDCGCKPCICTVPEVSSVFIFPPKPKDVLTITLTPKVTCVVVAISKDDPEVQFSWFVDDVEVHTAQTKPREEQINSTFRSVSELPIMHQDWLNGKEFKCRVNSAAFGAPIEKTISKTKGRPKAPQVYTIPPPKKQMAKDKVSLTCMITNFFPEDITVEWQWNGQPAENYKNTQPIMKTDGSYFVYSKLNVQKSNWEAGNTFTCSVLHEGLHNHHTEKSLSHSP
light 1: not shown
light 2: EVQLLESGGGLVQPGGSLRLSCAASGFTFSSHAMSWVRQAPGKGLEWVSAIWASGEQYYADSVKGRFTISRDNSKNTLYLQMNSLRAEDTAVYYCAKGWLGNFDYWGQGTLVTVSSASDAAPTVSIFPPSSEQLTSGGASVVCFLNNFYPKDINVKWKIDGSERQNGVLNSWTDQDSKDSTYSMSSTLTLTKDEYERHNSYTCEATHKTSTSPIVKSFNRNEC
notes: Murine IgG1 DAPG DDKK; also called ICOS(16E09)-FAP(28H1) 1 + 1 muIgG1 DAPG
B3: FAP-targeted mICOSL, mIgG1 DAPG, bivalent murine ICOSL (Gly47-Lys279), monovalent FAP (28H1) c-terminal fused of the heavy chain C region (Fc fusion)
chain 1: ETEVGAMVGSNVVLSCIDPHRRHFNLSGLYVYWQIENPEVSVTYYLPYKSPGINVDSSYKNRGHLSLDSMKQGNFSLYLKNVTPQDTQEFTCRVFMNTATELVKILEEVVRLRVAANFSTPVISTSDSSNPGQERTYTCMSKNGYPEPNLYWINTTDNSLIDTALQNNTVYLNKLGLYDVISTLRLPWTSRGDVLCCVENVALHQNITSISQAESFTGNNTKNPQETHNNELKGSPGSSSSSGSADGCKPCICTVPEVSSVFIFPPKPKDVLTITLTPKVTCVVVAISKDDPEVQFSWFVDDVEVHTAQTKPREEQINSTFRSVSELPIMHQDWLNGKEFKCRVNSAAFGAPIEKTISKTKGRPKAPQVYTIPPPKKQMAKDKVSLTCMITNFFPEDITVEWQWNGQPAENYKNTQPIMKTDGSYFVYSKLNVQKSNWEAGNTFTCSVLHEGLHNHHTEKSLSHSPGGGGGSGGGGSGGGGSGGGGSEVQLLESGGGLVQPGGSLRLSCAASGFTFSSHAMSWVRQAPGKGLEWVSAIWASGEQYYADSVKGRFTISRDNSKNTLYLQMNSLRAEDTAVYYCAKGWLGNFDYWGQGTLVTVSS
chain 2: ETEVGAMVGSNVVLSCIDPHRRHFNLSGLYVYWQIENPEVSVTYYLPYKSPGINVDSSYKNRGHLSLDSMKQGNFSLYLKNVTPQDTQEFTCRVFMNTATELVKILEEVVRLRVAANFSTPVISTSDSSNPGQERTYTCMSKNGYPEPNLYWINTTDNSLIDTALQNNTVYLNKLGLYDVISTLRLPWTSRGDVLCCVENVALHQNITSISQAESFTGNNTKNPQETHNNELKGSPGSSSSSGSAGSPGSSSSSGSADGCKPCICTVPEVSSVFIFPPKPKDVLTITLTPKVTCVVVAISKDDPEVQFSWFVDDVEVHTAQTKPREEQINSTFRSVSELPIMHQDWLNGKEFKCRVNSAAFGAPIEKTISKTKGRPKAPQVYTIPPPKEQMAKDKVSLTCMITNFFPEDITVEWQWNGQPAENYDNTQPIMDTDGSYFVYSDLNVQKSNWEAGNTFTCSVLHEGLHNHHTEKSLSHSPGGGGGSGGGGSGGGGSGGGGSEIVLTQSPGTLSLSPGERATLSCRASQSVSRSYLAWYQQKPGQAPRLLIIGASTRATGIPDRFSGSGSGTDFTLTISRLEPEDFAVYYCQQGQVIPPTFGQGTKVEIK
notes: also called FAP-mICOS-L; FAP-mICOSL
B4: Fab fragment 16E09 (Fab, V domains shown)
VH: EVQLVQSGAEVKKPGESLKISCKGSGYSFTSYWIGWVRQMPGKGLEWMGIIYPGDSDTRYSPSFQGQVTISADKSISTAYLQWSSLKASDTAMYYCARSSGPYGLYLDYWGQGTLVTVSS
VL: not shown
notes: Phage-derived Fab expressed in E. coli TG1 and purified on His GraviTrap columns; also called 16E09 anti-ICOS antibody as Fab fragment; purified Fab fragment 16E09

Legend:
murine ICOS [1] = biological target: T1, murine ICOS; test: cell-based or functional assay
murine ICOS [2] = biological target: T1, murine ICOS; test: flow cytometry on CHO cells stably overexpressing murine ICOS, PE secondary, axis % Binding to murine ICOS
Procedure: (§1) Briefly, adherent MKN45, NIH/3T3-moFAP or CHO-mICOS cells were detached using trypsin (Gibco, 25300-054), washed and 0.1 million cells were transferred into a 96-round bottom well-plate. […] Thereafter, cells were washed twice with cold PBS 0.1% BSA and further incubated for further 30 min at 4° C. with a labeled secondary antibody (PE-conjugated, #715-116-150 from Jackson Immuno Research Lab, diluted 1 to 50 in FACS buffer). Cells were washed with FACS buffer and the staining was fixed for 20 min at 4° C. in the dark, using 75 μl of 1% PFA in FACS buffer per well. Cells were washed twice with FACS Buffer and re-suspended in FACS Buffer for analysis.
(§2) Fluorescence was analyzed by FACS using a FACS Fortessa (Software FACS Diva). Binding curves and EC₅₀ values were obtained using GraphPadPrism6.

murine FAP (mFAP) [3] = biological target: T2, murine FAP (mFAP) (murine, UniProt P97321 1-761); test: flow cytometry on NIH/3T3-moFAP cl.34 cells
T2 construct: Expressed on 3T3-mFAP / NIH/3T3-moFAP cl.34 cells; also called mouse FAP; moFAP
Procedure: as §1, §2

murine ICOS [4] = biological target: T1, murine ICOS; test: flow cytometry on CHO cells expressing murine ICOS
Procedure: as §1, §2

murine FAP (mFAP) [5] = biological target: T2, murine FAP (mFAP); test: flow cytometry on NIH/3T3-moFAP cells stably overexpressing murine FAP, PE secondary, axis % Binding to murine FAP
Procedure: as §1, §2

murine ICOS [6] = biological target: T1, murine ICOS; test: flow cytometry on CHO-K1 transfectants expressing murine ICOS
Procedure: (§3) The staining was fixed for 20 min at 4° C. in the dark, using 75 μl of 1% PFA in FACS buffer per well. Fluorescence was analyzed by FACS using a FACS Fortessa (Software FACS Diva). Binding curves were obtained using GraphPadPrism6 and are shown in FIGS. 6A-6C and 7A-7B, respectively.

murine FAP (mFAP) [7] = biological target: T2, murine FAP (mFAP); test: flow cytometry on 3T3-mFAP cells
Procedure: as §3

murine FAP (mFAP) [8] = biological target: T2, murine FAP (mFAP); test: flow cytometry on 3T3-mFAP cells stably overexpressing murine FAP, median fluorescence intensity
Procedure: as §3

murine ICOS [9] = biological target: T1, murine ICOS; test: binding to CHO K1 cells expressing murine ICOS
[10] = biological target: T3, dimeric murine ICOS antigen Fc(kih) fusion molecule (murine, biotinylated at the C-terminal Avi tag (BirA co-expression)); test: SPR, ProteOn XPR36, 25 C, one-shot kinetics, Fab dilution series over murine ICOS protein, 1:1 Langmuir
T3 construct: also called murine ICOS proteins; biotinylated ICOS-Fc fusion protein
Procedure: For one-shot kinetics measurements, dilution series of purified monoclonal antibody Fab fragments were injected simultaneously along separate channels 1-5. Buffer (PBST) was injected along the sixth channel to provide an “in-line” blank for referencing. Association rate constants (kₒₙ) and dissociation rate constants (koff) were calculated using a simple one-to-one Langmuir binding model in ProteOn Manager v3.1 software by simultaneously fitting the association and dissociation sensorgrams. The equilibrium dissociation constant (KD) was calculated as the ratio koff/kₒₙ (Table 18).

T2 sequence (P97321 whole entry): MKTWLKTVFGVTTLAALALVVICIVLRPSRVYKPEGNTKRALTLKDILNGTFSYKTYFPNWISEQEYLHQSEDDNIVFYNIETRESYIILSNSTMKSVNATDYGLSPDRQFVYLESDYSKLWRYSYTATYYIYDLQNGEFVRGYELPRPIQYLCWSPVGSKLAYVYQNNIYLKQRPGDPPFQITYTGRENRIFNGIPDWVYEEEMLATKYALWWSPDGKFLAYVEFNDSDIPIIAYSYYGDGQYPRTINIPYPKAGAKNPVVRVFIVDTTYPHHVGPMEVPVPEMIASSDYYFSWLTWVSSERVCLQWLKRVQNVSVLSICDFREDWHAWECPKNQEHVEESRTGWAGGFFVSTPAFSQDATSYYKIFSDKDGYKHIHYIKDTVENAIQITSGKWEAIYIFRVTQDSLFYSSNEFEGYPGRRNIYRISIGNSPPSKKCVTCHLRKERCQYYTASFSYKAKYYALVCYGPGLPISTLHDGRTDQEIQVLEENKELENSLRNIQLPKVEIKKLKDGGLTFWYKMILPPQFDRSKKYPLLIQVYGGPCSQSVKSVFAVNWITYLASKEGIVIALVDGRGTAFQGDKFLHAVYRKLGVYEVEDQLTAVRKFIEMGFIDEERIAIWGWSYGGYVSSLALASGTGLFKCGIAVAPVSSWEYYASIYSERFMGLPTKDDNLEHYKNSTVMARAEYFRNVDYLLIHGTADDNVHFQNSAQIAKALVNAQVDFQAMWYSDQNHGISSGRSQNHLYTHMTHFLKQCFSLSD

| Binder | Fold increase vs TCB only at 3 nM CEA- or FAP-ICOS, % CD69^+CD4^+ (murine ICOS [1]) | Fold increase vs TCB only at 3 nM CEA- or FAP-ICOS, % CD69^+CD8^+ (murine ICOS [1]) | Fold increase vs TCB only at 75 nM CEA- or FAP-ICOS, % CD69^+CD4^+ (murine ICOS [1]) | Fold increase vs TCB only at 75 nM CEA- or FAP-ICOS, % CD69^+CD8^+ (murine ICOS [1]) | EC50 (read off the curve) (murine ICOS [2]) | EC50 (murine FAP (mFAP) [3]) | EC50 (murine ICOS [4]) | EC50 (read off the curve) (murine FAP (mFAP) [5]) | EC50 (murine ICOS [6]) | EC50 (murine FAP (mFAP) [7]) | EC50 (read off the curve) (murine FAP (mFAP) [8]) | binding result (murine ICOS [9]) | Kd [10] |
| --- | --- | --- | --- | --- | --- | --- | --- | --- | --- | --- | --- | --- | --- |
| B1 | 1.1 fold | 2.3 fold | 1.1 fold | 2.4 fold | ~3 nM | 2.86 nM | 2.88 nM | ~3 nM |  |  |  |  |  |
| B2 | 1.2 fold | 1.9 fold | 1.2 fold | 1.9 fold |  | 0.142 nM | 17.1 nM | ~0.1 nM |  |  |  |  |  |
| B3 |  |  |  |  |  |  |  |  | 28.1 nM | 71.8 nM | ~30 nM |  |  |
| B4 |  |  |  |  |  |  |  |  |  |  |  | binds | 293 nM |
